The target in series [1] is FMRP RNA-AE (KH1 GKKG / KH2 RNA-KO, KH1-2 di-domain) (human (hFMRP), UniProt Q06787 216-425, T236K;H237K;K299D;N300D;del331-396). Kind of series: NMR titration; Kd value only in figure; NMR titrations: 50 uM 15N-protein, 10 mM phosphate pH 6.9, 40 mM NaCl, 0.5 mM TCEP, protein:RNA 1:0 to 1:12; temperature not given. The conditions noted are these: protein: recombinant; tags: N-terminal 6xHis, cleaved with HRV 3C; single strand.

For series [2], the target named is FMRP RNA-WT (KH1 WT / KH2 RNA-KO, KH1-2 di-domain) (human (hFMRP), UniProt Q06787 216-425, K299D;N300D;del331-396). Kind of series: NMR titration; unit prefix lost in text (printed M), uM inferred; NMR titrations: 50 uM 15N-protein, 10 mM phosphate pH 6.9, 40 mM NaCl, 0.5 mM TCEP, protein:RNA 1:0 to 1:12; temperature not given. The conditions noted are these: protein: recombinant; tags: N-terminal 6xHis, cleaved with HRV 3C; single strand.

The text below walks through data of PMC10326445, “Affinity-enhanced RNA-binding domains as tools to understand RNA recognition”.

The term Kd denotes the free concentration of one partner at which half of the binding sites on the other are occupied at equilibrium, for simple one-to-one binding.

Take UAGAC (ssRNA): the binding signal in series [1] came out at 2.5 fold weaker than UGGAC.

As for UGGAC (ssRNA), the dissociation constant (Kd) in series [2] was 418 ± 57.9 µM.

In the case of GAGAC (ssRNA), the binding signal in series [1] is approximately 3 fold tighter than GAGCC.

Consider GAGCC (ssRNA), for which the binding signal in series [1] is approximately 3 fold weaker than GAGAC.
